Source: the DeepSol protein solubility set

Assay: soluble on expression in E. coli; label from the status in PepcDB or PDB records

Soluble on expression in E. coli, not soluble:
GPGSMAVGASSRTAQRTPARERRQIIPPDVSGQFRVTTFLSLDAFALQHFTLDDHSATGKEGRMFRAFGVTTWAPRIWDEGVSGVFLDLRGAYNYWKRADDQAQLVFDSLVAWIGALEAERDPTDRFMNLGRILLQAFRMQLMMASDPGIPVFNILARPCTAVHEADTFARTIQIPLERRGTQISLRCQLCHVTCP
GPGSMDDLVAVRIKDGIFAGNAGAAADKTLLIMNKITHIINCAGAEVADFFLGEPGFSYLSFPWKDAAGSVCTTILFDAGDDNIHRVVQFIDEALAAGECVLVHSVYGNSRSPALIAAYMIMKYGWKLESALLYLKMAHPDSDIKPHFQRQLRQFAKRHEVDHDIFAQDVDDSQFGLDNDQWMLRNTLLNGLLYKDQMANDLYRQCAEKVDVGNPVNGKAKKAHITFVDTKKGTDA
GPGSMDVLVPRAASSGAVGRTPAARTFSAAPPSASSSLCVVGSADHGLKVFNLCTMRELKTLYTKTCGHTEWVTACRFLSDRRVISGGMDSKLCLWNDVTRGGPGRCVDLLGHTGSISQVEVNERHGRSIAMSSSYDRTIRVWELDGIAGGREMGCLSGHKGPVTQFSWLETEVLSGDRQGTVKLWDVETAQCHLTASSKRGQIGSLAHLVHPGVGHLALFGDQGGALTVVDARGPSSAKPLFQDVLHPGGMVTFIRAPSPTAVSAPLIVTCGADKRIIVRDARHNFAEVCAITDHDDFVYSMEVIGNILLSGAGNGRLLVHDVETGELLYELKANAAAVREMFASPSVLVAAGDDGNAKVFDFM
GPGSMEEGVDLREGLPEDVLAAVIAAPGQVTVEEARAQLNSSTSFRVDAGLVHLTADGAREQSQMETMLLKLATKIPPTGVSGAQFRAILEDEAPHFQPSAVGALSLKEAVQRYPRLFDVETDTTGKWFVRPAGVGKDGRASVGKNSGPISIINFCSERALMGNQADYVPLHVAMREESVASEGVLRDLVDSEELSKQLQIRFSVRLRPKRPVTNAFCFVDGDEIGLEAVDAIWKEMNLSDKSTRLVARQPTSRKHNSSDIVAPADMPTYAVVERKARELSLTQSVVLQDVIYMCSLRQFSLYADHIAKLNAFPDADVYVCCPSKVKLVAQKQFVPL
GPGSMELALEAMDAAEPPVSAAEKARRLALLRASSAEEARSLVALHDAAALAELRAAIMDSFPDERHDPEMSVHLDQIIWGRCPIRIDVAGAWTDTPPYAILSGGSVINVAVELNGQPPVQVYVRVREDPIIMMHSIDSGEQLSVSSFDEIRTYATMQNPFSIPKAALALCGFLPEFCATEYATLREQLAARFGGHGLEISLFVAIPTGSGLGTSSIVAGTVLRSLAEFCKLPWDNHDVCRRVLLIEQMLTAGGGWQDQYGGLFEGLKLVQCVPGLPCLPTVRWMPDSVYTDPRFAACHLLYYTGITRMAKGILGEIVRDVLLNNGATLQLLREMGGPTTAAMYDAITTGNYKGYARLVHRTWEQKKRLDDGVCNPTVQSIVDIVEPYVWGLTLPGAGGGGYMYMCAKDEACARRIRELLTANPPNGNARFVEMSVSASGLQISRS
GPGSMERTPTARIRDVIDSQLALRSSGFLPGNSTPDQLLHLRAAVHRNAPQHRTAAYFVDHANAFGTVGPDAVILEMRRLSIPNRIARWSAACLNSTSAVVCIDKLTPSSRTLTRGAPQGTVLAPIMFVVVMQSRCSCPSNVPYFAEGSSLMTALSPHSRATGMRSTRPQKKA
GPGSMFTQISNAHTEVVTSLVFSPHVVTTCEGGLLCSTSGDDTTALWDLRAGPGVSQRAAHLTGHHVGPVNHALFHPSNAHTLLTASDDRSIGCWDLRRPDRVVGAVSGFQEGVNKMLWLPVTSDGCRGTGGSSSGGGGSVVSACDDGHVYVHALALPDSGSESATVAGAAPVPQVGALVDKFRVSTSTVNDIVLAPNSTSILITASEDCALRSWSLRHAQQMTNTSVGLMEDRLLATLDEFENPVNHVVVVPSGLMAPVESRAAGEDPESSSSRSPAGAAGDAEESADAAAASTGFPRAYQQVHGGDDVEDAEVGSDAGSSAGARQPRRATDISEAAGTACWLLAACSECVFGVDFALRVGEFGTGARAFVGHQDYVRGLEFTSEGKLLTVSDDSTAIEWDLATTDPIRQVKLHEGLVMSSAVSPSRNLLATGTDRGELRVWRLPFATERIGGSP
GPGSMKIGVVLGSGGHTSEMLRAITEIPLSYWLDTRPFYVVSATDPHSASLASQLEQQRFERRVVVYTIPRAREVGQSYLMSIITTIRATLACFRFVCTEKPDVLLTNGPGVCVPVIAAAVCVASCAPWWYGRPAIVYMESFTCVSHLSLTGSLLAPWLADVFTVHWRALERAVARRRRRGTLVYVGSETARVTDGAPHRLRSLAAEQEAYALVTVGSTKFSSLVQAVVQPGVCATLHQRFGIKRLYVQHGTAEVVAPPEATLLPALPMAAGADASHPTQQWSCGGLLVEAFPYRPCLDAVIRGATLVITHAGAGTILEGLQAQRPLVVVPNRQLMSDHQLDLAEALANGGFLFCVQVAELAERLPLLDLTTLRPHGGMDAAQLQEALRLVLTGHSASGERAKAD
GPGSMKLRCFLLRYYPPGITLEYETSAGQVGQKTIGLLSLTPTTPLEPLVDKIIAEEPLLNGKYHDQIVTYLQRLVEKLIAGNNPNQTFTLFKSLRAHMLPLTNCAFNKNGTKFVTGSYDRTCKVWETATGNELVSLEGHRNVVYCVGFNNPYGNRVATGSFDKTCKIWDGESGQCLHTLTGHVTEIVCMSFNPQSTLIGTGSMDNTAKVWDVETGQELHTLMDHTAEIVALNFNTYGDLIVTGSFDHTAKLWDVRTGTVVHTLREHRGEISSVQFNYASNLVVTGSIDRTCKLWDVASGRCVSTLRGHTDEVLDVAFSVSGNMVASASADTTARVYNTATCHCIASLNDHEGEISKLEFNPQGTKIITASGDKRCNLWSVETGQVLQSLVGHTDEIFSCSFNYEGDTILTGSKDNTCRIWKS
GPGSMKRFGIWTRPSLGRRSFYAGLDDSRVMRLRRSNTTLNKPRGRDAFSLAFEKRIHLLPLTQVGDLYGLPVPPSAPGESSGGAAEETIRVLVVDLLLLEDVESLISFPASNPLYYEDWPTVSDNSEGEVPSDRRSGISSSLALGESGFSLPSSNKRHLRQYGDTTLLRNSFVREAAHGVSAQFHTAICINPFIDVDRFRREEAQVEMISAYRNILYEAAEVPDGRADVIRIPALCCDTCGPRFYHEIGKLNQQSLIKGFHRIGSEAKETLMLNPKFIVEVYVPLPFLQQFQRAFLEDAWETPESTLNPGRTALYPGLAPPRSLLPLEGWIGKRPELVEAIETEGRSLMSGVKYSLDGKPIEEREVLAELRVFGREKEQEEMLKREEETATQQGLEVAPNGNTVAPLRAGIDQN
GPGSMLAASRLARGVAETVTRENFTISRLTNGLRVITCEDGNGITGMGLFSLNGPKFEEEGSFGAAAVMESLPLRSNTRMTTETISQSLGVFGNAYKVTNNREAMSVMLMMPRYHRKEGLDVLNGMWLHPTDNDEEFAVAKAQTLHRSSLMSRDATSMLFELVHKAGWSGRGLGNPLSPTEQQLEQLTLERFHAFHRRYTTPERTVLAATGVADHKTFVQEAEVRLQFPQATAPSLHSSSAETANKAAAATAQLHPYTGGCEYVQNTMAPESMNKFQEKNLSHIALFFQAIPMAHPDYFTFSVIQTLLGGGTSFSSGGPGKGMQTKLFREVLNREPNVHGMECITAWYSDGGLIGLYGSAPHEHVNNLLKIIIFQAASISQRVTPVHVEMAKNQLSSQLILLGEGREQLLNDMGFNLLVHNYTITPQETIQGSAQVTMARLHEVCAQLIEHPITFAVYGETKGMPEYRELVQALKKSYASLSKSTPA

Soluble on expression in E. coli, soluble:
GPGSMASSKVILEDTFTVAAVNEEGTVYSRVSRVRCTGEGGGLIITSDVNTGEFPLHSGDRLTIILTDSIELSEQAGSKHYDQSVYHRSTRLDDCDYAMHGRVYSMEVNESSLDVTVHISCGGLLTQIVGKPQSLKDVHYNSDVYILMKRPGS
GPGSMASVSPSETGGTLITFLQQLRGTLVEIELKNASIVSGEIAYVDANMNTYMSHAKITSKGKNPVEVEEYMVRGSTIRYIIMPESLNTYDILKQASTKKNGASKK
GPGSMERYAFAEDYKNARGIPRVEYISDMATFVKNNGGADALISRLILDSSKYEHTEKRLVSSMANLDHKIPTIKKTLHALNFLKKRLQEDQTPVRSYYCLTDAVFGEAEVVPQETVHLWMGAKVMVEYTFDEALQLLEKNLANAETNLKATKEDLAWVQEQMTNLQINISRVYNYDLKNKRTNGGAAEPSA
GPGSMETFRERTLANRYQPRQHLPPEFPGVLKEYAREVLREQPEDILQWSANYFKRLAREMDAKPAGEHRMTAPALPHLESRPNTREEEEEEYGERLQQYIDMFVEHDSENNGVLPVKAIKEALLKSYGLTLPQALYVLTATQLVEKEPVNYAEFACESFPALRFVWSTEHNFQVSNREDTTVHGLSRIDVQQEFLKLLRFADRSDTSLLSIDQYMDVLRCAPYHLTTRDLRILRVEAELNERHEVNYEEELLHIFDRLLLAEQFAQLDSDD
GPGSMEYNARYQVSPRDQFLRKVVVVPYGVLGMQMTLQGGLVRAGSEPDESTFIVDPANLRHIFTTAVGATGASGAIYNMLGLRGPFPDEVVQAISRVCDTKFYKYGERANVIHVVDPDFREGAWSEREAAVELSRAYRNVFHEFVRGDGDVLRVPPLSSGVLSGSLYNQLPIITQSAVAMAFEQLHTFDREYLLRRDKQVELCVFMNREWDMYQNVFKNCTQPSKL
GPGSMHVSSPQRAKSEASQPPNGSPPLSSSEPAAVHLYDLDTVFLSKTVISLTDVFTNSTDGPFDLSPLCAPQQQGVEEQQRLQQAAATTASSPSTGDAHCSPSSGATHAHMCSTSLPFSGGSTLRPKAVARGADGQWRTVSTDRGAPASSAFTTACNKPPSQEAHARMLLVPLDSYHFLLTYHDVDVAGQLRGRCDKQTAMATMERLSAASPGCRPPRSGICVVRRLEGEQRGATKASSAATAVLAGAASATRPTLSRIAHGLPLDAFDGWVRDYTVYGLSCNEAVLRAAWEDKARERAEGTLAMPAGAVVEVGESAAPGHESAGGGGSGEERRVTGGGNSRGDNVGGVHISVPPASGSSAEATVEGAAALAPQLSDAPSVLVPTDGAAVGEGKDAATFASPDAARAAMLSPSLDRLHCSSTTSSSSTATPTPSPPTERSEEGGKVGGTVSTTMSASPASTAAQQQQQQNDVLWEEERQRTQRAAAQLRHRFLVSDSAQHALWALEVHLPAMKVRAVSPAEFYALEVEESDEERCQQLPGTARMMATMVTMKHRRHAALQKHERILLMHLHRDWRFLAGRQRLQSRAAARPSQVTATLSRARPAPTHRGRARHRRQIR
GPGSMIHPMAVDRLLPSQEAAELIELTREIADKVLDPIVDRHEKDETYPEGVFEQLGAAGLLSLPQPEEWGGGGQPYEVYLQVLEEIAARWASVAVAVSVHSLSSHPLLVFGTEEQKKRWLPGMLSGEQIGAYSLSEPQAGSDAAALRCAATPTDGGYVINGSKSWITHGGKADFYTLFARTGEGSRGVSCFLVPADQPGLSFGKPEEKMGLHAVPTTSAFYDNARIDADRRIGEEGQGLQIAFSALDSGRLGIAAVATGLAQAALDEAVAYANERTAFGRKIIDHQGLGFLLADMAAAVATARATYLDAARRRDQGRPYSQQASIAKLTATDAAMKVTTDAVQVFGGVGYTRDYRVERYMREAKIMQIFEGTNQIQRLVIARGLTR
GPGSMKSPHMARIGNSVYRDICPEDDPLCSNFGFEDYDLSRPTPMMRMSLLYNLHVSGESPSPAIDNMFRLAYRSRHGLVKIYKVMNVSAESKAWVADPKNRKCDAPGSWLCTGQYPPAKEIQEMLARRIDYGQLEDFNRGKRDDAYYRAYMRRIRNQGRG
